In test [1] the test system is SK-HEP-1/hGPC3 (SK-pca31a) xenograft tumor. As to the kind of experiment: In vivo drug efficacy, NOD scid/T cell-injected model, SK-pca31a. To be noted: 5 mg/kg once through the tail vein, compared to the vehicle-administered group. Also noted: species or system NOD scid mice. As for the experimental part:
Methods called an NOD scid/T cell-injected model, a humanized NOG mouse model, and a human CD3εδγ gene-modified mouse model were used in the in vivo drug efficacy evaluation. Assay using an NOD scid/T cell-injected model was performed as follows. […] T cells expanded by culturing human PBMCs in vitro were injected into the NOD scid mice with confirmed tumor establishment. The mice were treated by administering bispecific antibody-38 and bispecific antibody-30, -31, -32, or -33. Assay using a humanized NOG mouse model was performed as follows. CD34-positive hematopoietic stem cells derived from umbilical cord blood were transplanted into NOG mice by tail vein injection. Human T cells are constantly supplied in the mice, which are called humanized NOG mice. The PC-10 cell line was transplanted into humanized NOG mice. The humanized NOG mice with confirmed establishment of PC-10 tumor were treated by administering antibody-38. Assay using a human CD3εδγ gene-modified mouse model was performed as follows. Cells of mouse-derived cell line forced to express human GPC3 were transplanted into a human CD3εδγ gene-modified mouse model, which had been prepared according to Reference Example 10. The human CD3εδγ gene-modified mice with confirmed tumor establishment were treated by administering antibody-38.
The drug efficacy evaluation studies for bispecific antibody-38, and bispecific antibody-30, -31, -32, and -33 in NOD scid/T cell-injected model were performed as follows. T cell expansion culture was performed using PBMCs separated from blood collected from a healthy person and T cell activation/expansion kit/human. Each of human cancer cell lines (MKN74, FU-97, SNU-1, SCC152, KYSE70, PC-10, HuH-7, TOV-21G, RMG-1, and SK-pca31a (SK-HEP-1/hGPC3)) was mixed with Matrigel™ Basement Membrane Matrix, and transplanted subcutaneously into NOD scid mice (CLEA Japan). An in vivo-passaged line (STM-03) was transplanted as about 2-mm tumor tissue cubes subcutaneously into NOD scid mice (CLEA Japan). The day of transplantation was defined as Day 0. On the day before transplantation, anti-asialo GM1 antibody (Wako Pure Chemical Industries) was administered intraperitoneally at 0.2 mg/mouse. When tumor was clearly established after transplantation, the mice were separated into groups based on tumor size and body weight. Then, anti-asialo GM1 antibody was administered intraperitoneally at 0.2 mg/mouse again. On the following day, T cells obtained by the aforementioned expansion culture were transplanted intraperitoneally at 1.5×10^7 to 3×10^7 cells/mouse. About two to five hours after T cell transplantation, antibody-38 was administered at 1 mg/kg (MKN74, FU-97, SNU-1, SCC152, KYSE70, PC-10, HuH-7, TOV-21G, RMG-1, and STM-03) through the tail vein. The administration was performed only once. […]

The target in test [2] is human CD3 (soluble human CD3ε chain) (Homo sapiens, UniProt P07766). As to the kind of experiment: Affinity for human CD3 by surface plasmon resonance (Biacore T200). The class given is binding. To be noted: soluble human CD3ε chain; Table 12. As for the experimental part: (§1) The activity to bind human CD3 when using hCE115HA (SEQ ID NO: 52) as the H chain variable region and L0000 (SEQ ID NO: 53) as the L-chain variable region was evaluated. This was performed using the molecular form of a single-arm antibody having a single Fab at the Fc region of a human IgG1 heterodimerized by the knobs-into-hole technique.
Sequence of human CD3 (soluble human CD3ε chain) (P07766 23-126 limits assumed): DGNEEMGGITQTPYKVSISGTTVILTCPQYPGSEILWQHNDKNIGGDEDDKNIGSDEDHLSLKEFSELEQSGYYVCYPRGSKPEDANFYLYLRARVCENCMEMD
(§2) The affinity and binding rate constants of an anti-CD3 antibody for an antigen were measured by the single-cycle kinetics method of a surface plasmon resonance assay using Biacore™-T200 (GE Healthcare Japan). HBS-EP+(GE Healthcare Japan) was used for the running buffer, and an amine coupling kit (GE Healthcare Japan) was used to covalently bind human CD3 to the CM4 chip (carboxymethyl dextran-coated chip). The anti-CD3 antibody used as the analyte was prepared at 5 and […] using HBS-EP+. Measurements were carried out by first injecting each of the 5- and 20-g/mL anti-CD3 antibody solutions for three minutes continuously at a flow rate of 20 L/min to allow reaction to take place. Then, the solution was switched to HBS-EP+ and the dissociation phase was measured for 3 minutes. After completion of the dissociation phase measurement, the sensor chip was regenerated by washing with 10 mM Gly-HCl at pH 1.5. Measurement at the concentration of 0 was carried out by performing each of the three-minute HBS-EP+ injections twice successively to allow reaction to take place, and then switching to HBS-EP+ to measure the dissociation phase for 3 minutes. After completion of the dissociation phase measurement, the sensor chip was regenerated by washing with 10 mM Gly-HCl at pH 1.5. A data analysis software exclusively for Biacore, Biacore T200 Evaluation Software Version 1.0, was used to perform kinetic analyses to calculate the binding rate constant (ka), dissociation rate constant (kd), and the rate constant ratio from the obtained sensorgrams.
CDR and FR were determined according to the Kabat definition (Kabat numbering).
First, point mutations were introduced into FR1, FR2, FR3, CDR1, CDR2, and CDR3 of the humanized anti-human CD3ε chain antibody sequence produced in Reference Example 2, hCE115HA-ERY27_HE (SEQ ID NO: 55), to prepare modified antibodies. Next, the affinity of these modified antibodies for the soluble human CD3ε chain was determined.

Test [3] concerns the target T1, human GPC3 (human, UniProt P51654 25-563).
T1 construct: range 25-563; soluble analyte; also called soluble human GPC3; glypican 3
Description: SPR, single-arm antibody. For orientation: Surface plasmon resonance follows binding to a sensor surface in real time, without labels.

In test [4] the target is T1, human GPC3. Description: SPR.
The target in test [5] is T2, soluble human CD3 epsilon chain (human, UniProt P07766 23-126).
T2 construct: also called CD3ε
T2 sequence (P07766 23-126 limits assumed): as above
As to the kind of experiment: SPR, human CD3 on the chip. As for the experimental part:
as §1, §2

Positions count from the first letter of the chain named.

The term Kd denotes the equilibrium constant for the complex coming apart. Low values mean a tighter complex, high ones a looser complex. A word on the koff: it is the first-order rate constant of dissociation. A high value points to a short-lived complex. For orientation: kon means the rate constant with which the complex forms. A lower kon goes with slow association.

T1 sequence (P51654 25-563 limits assumed): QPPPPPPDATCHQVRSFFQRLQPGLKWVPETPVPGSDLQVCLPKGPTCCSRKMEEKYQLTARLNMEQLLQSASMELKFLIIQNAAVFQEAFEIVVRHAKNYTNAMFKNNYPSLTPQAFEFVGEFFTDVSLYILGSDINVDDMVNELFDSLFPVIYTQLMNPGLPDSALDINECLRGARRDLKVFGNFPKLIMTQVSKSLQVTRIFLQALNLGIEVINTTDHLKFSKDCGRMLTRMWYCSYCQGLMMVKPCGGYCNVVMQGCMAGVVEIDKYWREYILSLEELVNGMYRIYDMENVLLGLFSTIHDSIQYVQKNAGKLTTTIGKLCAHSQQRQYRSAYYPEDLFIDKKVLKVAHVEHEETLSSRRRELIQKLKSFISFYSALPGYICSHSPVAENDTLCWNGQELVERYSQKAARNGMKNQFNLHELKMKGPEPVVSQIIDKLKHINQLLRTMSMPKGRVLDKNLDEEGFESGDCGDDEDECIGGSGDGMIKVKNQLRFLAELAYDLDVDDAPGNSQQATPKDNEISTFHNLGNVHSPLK

B1: antibody-30: optimized anti-human CD3ε chain and anti-human GPC3 bispecific antibody (antibody)
heavy 1: QVQLVESGGGLVQPGRSLRLSCAASGFTFSNAWMHWVRQAPGKGLEWVAQIKDKSQNYATYYAESVKGRFTISRDDSKNSLYLQMNSLKTEDTAVYYCRYVHYAAGYGVDAWGQGTTVTVSSASTKGPSVFPLAPCSRSTSESTAALGCLVKDYFPEPVTVSWNSGALTSGVHTFPAVLQSSGLYSLSSVVTVPSSSLGTKTYTCNVDHKPSNTKVDKRVESKYGPPCPPCPAPEFRGGPKVFLFPPKPKDTLMISRTPEVTCVVVDVSQEDPEVQFNWYVDGVEVHNAKTKPREEQFASTYRVVSVLTVLHQDWLNGKEYKCKVSNKGLPSSIEKTISKAKGQPREPQVYTLPPSQKEMTKNQVSLTCLVKGFYPSDIAVEWESNGQPENNYKTTPPVLDSDGSFFLYSKLTVDKSRWQEGNVFSCSVMHEALHNRYTQKSLSLSP
heavy 2: QVQLVQSGAEVKKPGASVTVSCKASGYTFTDYEMHWVRQAPGEGLEWMGAIDGETPDTAYSEKFKGRVTLTADKSTSTAYMELSSLTSEDTAVYYCTRFYSYTYWGQGTLVTVSSASTKGPSVFPLAPCSRSTSESTAALGCLVKDYFPEPVTVSWNSGALTSGVHTFPAVLQSSGLYSLSSVVTVPSSSLGTQTYTCNVDHKPSNTKVDKRVESKYGPPCPPCPAPEFRGGPKVFLFPPKPKDTLMISRTPEVTCVVVDVSQEDPEVQFNWYVDGVEVHNAKTKPREEQFASTYRVVSVLTVLHQDWLNGKEYKCKVSNKGLPSSIEKTISKAKGQPREPQVYTLPPSQEEMTKNQVSLTCLVKGFYPSDIAVEWESNGQPENNYKTTPPVLDSDGSFFLYSKLTVDKSRWQEGNVFSCSVMHEALHNHYTQESLSLSP
light: DIVMTQSPLSLPVTPGEPASISCRSSQPLVHSNRNTYLHWYQQKPGQAPRLLIYKVSNRFSGVPDRFSGSGSGTDFTLKISRVEAEDVGVYYCGQGTQVPYTFGQGTKLEIKRTVAAPSVFIFPPSDEQLKSGTASVVCLLNNFYPREAKVQWKVDNALQSGNSQESVTEQDSKDSTYSLSSTLTLSKADYEKHKVYACEVTHQGLSSPVTKSFNRGEC
Turning to B1, the anti-tumor effect result in test [1] is reported as “evident anti-tumor effect”.

B2: antibody-32: optimized anti-human CD3ε chain and anti-human GPC3 bispecific antibody (antibody)
heavy 1: B1 heavy 1 with L11V, R16G, D75A, L81I, A111I
heavy 2: B1 heavy 2 with V37I, A40P, M48I, E54P
light: B1 light
Take B2: the anti-tumor effect result in test [1] is “evident anti-tumor effect”.

B3: antibody-31: optimized anti-human CD3ε chain and anti-human GPC3 bispecific antibody (antibody)
heavy 1: B1 heavy 1 with L11V, R16G, D75A, L81I, A111I
heavy 2: B1 heavy 2
light: B1 light
For the molecule B3, in test [1], the anti-tumor effect result is reported as “evident anti-tumor effect”.

B4: antibody-33: optimized anti-human CD3ε chain and anti-human GPC3 bispecific antibody (antibody)
heavy 1: B1 heavy 1
heavy 2: B1 heavy 2 with V37I, A40P, M48I, E54P
light: B1 light
For B4, in test [1], the anti-tumor effect result was “evident anti-tumor effect”.

B5: CE115HA122-E22Hh//-Hi-Kn010G3/L0000-k0: modified anti-CD3 antibody (antibody)
heavy: QVQLVESGGGVVQPGRSLRLSCAASGFTFSNAWMHWVRQAPGKGLEWVANIKAKSNNYATYYAESVKGRFTISRDDSKNSLYLQMNSLKTEDTAVYYCRYVHYGAYYGVDAWGQGTTVTVSSASTKGPSVFPLAPSSKSTSGGTAALGCLVKDYFPEPVTVSWNSGALTSGVHTFPAVLQSSGLYSLSSVVTVPSSSLGTQTYICNVNHKPSNTKVDKKVEPKSCDKTHTCPPCPAPEAAGGPSVFLFPPKPKDTLMISRTPEVTCVVVDVSHEDPEVKFNWYVDGVEVHNAKTKPREEQYASTYRVVSVLTVLHQDWLNGKEYKCKVSNKALPAPIEKTISKAKGQPREPQVYTLPPSRCELTKNQVSLSCAVKGFYPSDIAVEWESNGQPENNYKTTPPVLDSDGSFFLVSKLTVDKSRWQQGNVFSCSVMHEALHNHYTQKSLSLSPDYKDDDDK
light: B1 light with P28S
In test [2], B5 showed a Kd of 42.8 nM.

B6: GCH054-G1dh/none-Hi-Kn010G3/L0011-k0 (antibody, V domains shown)
VH: QVQLVQSGAEVKKPGASVTVSCKASGYTFTDYEMHWIRQPPGEGLEWIGAIDGETPDTAYSEKFKGRVTLTADKSTSTAYMELSSLTSEDTAVYYCTRFYSYTYWGQGTLVTVSS
VL: DIVMTQSPLSLPVTPGEPASISCRSSQPLVHSNRNTYLHWYQQKPGQAPRLLIYKVSNRFSGVPDRFSGSGSGTDFTLKISRVEAEDVGVYYCGQGTQVPYTFGQGTKLEIKR
notes: one-arm
On to B6, for which the dissociation constant (Kd) in test [3] and in test [4] was 5.25 nM throughout.

B7: GCH065-G1dh/none-Hi-Kn010G3/L0011-k0 (antibody, V domains shown)
VH: B6 VH with E54P
VL: B6 VL
notes: one-arm
As to B7, the Kd in test [3] and in test [4] was 0.884 nM in each case.

B8: H0610-G1dh/none-Hi-Kn010G3/L0000-k0 (antibody, V domains shown)
VH: B6 VH with T19K, E43Q, E54K, E62Q
VL: B6 VL with P28S
notes: one-arm
Turning to B8, the results for the Kd in test [3] and in test [4] were 4.16 nM and 3.97 nM, respectively.

B9: GCH094-G1dh/none-Hi-Kn010G3/L0011-k0 (antibody, V domains shown)
VH: B6 VH with I37V, P40A, I48M
VL: B6 VL
notes: one-arm
As for B9, the Kd in test [3] was 4.54 nM; in test [4], 3.88 nM.

B10: hCE115HA/L0000 single-arm antibody (antibody, human IgG1, V domains shown)
VH: QVQLVESGGGVVQPGRSLRLSCAASGFTFSNAWMHWVRQAPGKGLEWVAQIKAKSNNYATYYAESVKGRFTISRDDSKNSLYLQMNSLKTEDTAVYYCRYVHYGAYYGVDAWGQGTTVTVSS
VL: DIVMTQSPLSLPVTPGEPASISCRSSQSLVHSNRNTYLHWYQQKPGQAPRLLIYKVSNRFSGVPDRFSGSGSGTDFTLKISRVEAEDVGVYYCGQGTQVPYTFGQGTKLEIK
notes: single Fab on human IgG1 Fc heterodimerized by knobs-into-hole
With B10, in test [5], the Kd was 120 nM, the off-rate constant (koff) worked out at 0.023 s⁻¹ and the kon amounted to 190000 M⁻¹ s⁻¹.

These data come from patent US20250066503A1, “CELL INJURY INDUCING THERAPEUTIC DRUG FOR USE IN CANCER THERAPY” (CHUGAI SEIYAKU KABUSHIKI KAISHA, priority 2016, published 2025).
